This is an account of results in paper doi:10.1101/757856.

The target in test [1] is full-length human Neurofibromin (His6-tagged, purified) (human) (UniProt P21359). The test can be described thus: SAXS and SANS.
Test [2] shares this target. The test can be described thus: SEC-MALS.
For test [3] the target is unchanged. The test can be described thus: SEC. For orientation: SEC sorts molecules by how far they enter the pores of the column.
For test [4] the target is unchanged. Briefly: negative stain electron microscopy.
Test [5] has the same target. Briefly: AUC.

Where only a bound is given, the exact number is not on record here.

Broadly, the stoichiometry N is a count of units in the complex or per binding partner. In general, Kd refers to a measure of binding affinity in units of concentration. For the substance “full-length human Neurofibromin (His6-tagged, purified), P21359-2 1-2818”, the stoichiometry N in test [1], in test [2], in test [3], in test [4] and in test [5] was 2 throughout. Further, in test [5], the Kd was < 5 nM.
